In patent US10294520B2, “Nicotiana nucleic acid molecules and uses thereof” (U.S. Smokeless Tobacco Company LLC, priority 2004, dated 2019):
Residue numbers refer to the chain shown, from its start.

T1: tobacco nicotine demethylase (D121-AA8) (Nicotiana tabacum, UniProt Q38Q87)
T1 sequence (Q38Q87 with tags, fused parts or gaps): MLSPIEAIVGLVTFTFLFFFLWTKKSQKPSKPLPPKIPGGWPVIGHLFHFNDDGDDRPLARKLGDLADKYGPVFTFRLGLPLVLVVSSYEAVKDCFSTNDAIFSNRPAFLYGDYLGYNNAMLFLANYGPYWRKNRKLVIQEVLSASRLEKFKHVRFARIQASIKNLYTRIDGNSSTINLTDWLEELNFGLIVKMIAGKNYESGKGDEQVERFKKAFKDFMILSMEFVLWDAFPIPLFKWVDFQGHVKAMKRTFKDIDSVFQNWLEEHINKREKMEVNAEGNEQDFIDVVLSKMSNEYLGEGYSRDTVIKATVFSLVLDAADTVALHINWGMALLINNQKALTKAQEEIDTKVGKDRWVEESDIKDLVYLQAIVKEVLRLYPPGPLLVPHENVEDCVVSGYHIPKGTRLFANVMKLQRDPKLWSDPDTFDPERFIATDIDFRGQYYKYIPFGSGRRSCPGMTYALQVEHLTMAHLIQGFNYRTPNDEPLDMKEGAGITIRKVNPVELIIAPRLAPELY

T2: nicotine demethylase activity in the transformed yeast cells (Nicotiana tabacum, UniProt Q38Q87)
T2 construct: expressed in transfected cells; host or cells: Saccharomyces cerevisiae WAT11 transformed with pYeDP60-p450 cDNA plasmid, galactose-induced culture
T2 sequence (Q38Q87 with tags, fused parts or gaps): T1 sequence (Q38Q87 with tags, fused parts or gaps)

B1: D208-AD9: test p450 from a full-length tobacco clone, expressed in yeast (protein, listed as Nicotiana tabacum)
chain: T1 sequence (Q38Q87 with tags, fused parts or gaps) with I163M, K309E, G353C, S452P
B2: Control (CYP71D20): a p450 catalyzing the hydroxylation of 5-epi-aristolochene and 1-deoxycapsidiol in Nicotiana tabacum, used as control (protein, UniProt Q94FM7 1-504, looked up)
5-epiaristolochene …: MQFFSLVSIFLFLSFLFLLRKWKNSNSQSKKLPPGPWKIPILGSMLHMIGGEPHHVLRDLAKKYGPLMHLQLGEISAVVVTSRDMAKEVLKTHDVVFASRPKIVAMDIICYNQSDIAFSPYGDHWRQMRKICVMELLNAKNVRSFSSIRRDEVVRLIDSIRSDSSSGELVNFTQRIIWFASSMTCRSAFGQVLKGQDIFAKKIREVIGLAEGFDVVDIFPTYKFLHVLSGMKRKLLNAHLKVDAIVEDVINEHKKNLAAGKSNGALGGEDLIDVLLRLMNDTSLQFPITNDNIKAVIVDMFAAGTETSSTTTVWAMAEMMKNPSVFTKAQAEVREAFRDKVSFDENDVEELKYLKLVIKETLRLHPPSPLLVPRECREDTDINGYTIPAKTKVMVNVWALGRDPKYWDDAESFKPERFEQCSVDFFGNNFEFLPFGGGRRICPGMSFGLANLYLPLAQLLYHFDWKLPTGIMPRDLDLTELSGITIARKGGLYLNATPYQPSRE

Assays:
[1] = target: T1, tobacco nicotine demethylase (D121-AA8); experiment: Nicotine demethylase activity assay with yeast microsomal preparations; conditions: for nornicotine produced from the demethylation of nicotine (HPLC and LSC): microsomal samples from yeast cells expressing the p450
Procedure: After induction by galactose for 20 hours, yeast cells were collected by centrifugation and washed twice with TES-M buffer (50 mM Tris-HCl, pH 7.5, 1 mM EDTA, 0.6 M sorbitol, 10 mM 2-mercaptoethanol). The pellet was resuspended in extraction buffer (50 mM Tris-HCl, pH 7.5, 1 mM EDTA, 0.6 M sorbitol, 2 mM 2-mercaptoethanol, 1% bovine serum album, Protease Inhibitor Cocktail (Roche) at 1 tablet/50 ml). Cells were then broken with glass beads (0.5 mm in diameter, Sigma) and the cell extract was centrifuged for 20 min at 20,000×g to remove cellular debris. The supernatant was subjected to ultracentrifugation at 100,000×g for 60 min and the resultant pellet contained the microsomal fraction. The microsomal fraction was suspended in TEG-M buffer (50 mM Tris-HCl, pH 7.5, 1 mM EDTA, 20% glycerol and 1.5 mM 2-mercaptoethanol) at protein concentration of 1 mg/mL. Microsomal preparations were stored in a liquid nitrogen freezer until use.
Nicotine demethylase activity assays with yeast microsomal preparations were performed. […] Chlorpromazine (CPZ) and oxidized cytochrome c (cyt. C), both P450 inhibitors, were purchased from Sigma. […] NADPH was omitted for control incubation. The routine enzyme assay included microsomal proteins (around 1 mglrnl), 6 mM NADPH, and 55 μM ^14C labeled nicotine. […] C, when used, was 1 mM and 100 μM, respectively. The reaction was carried at 25° C. for 1 hour and was stopped with the addition of 300 μM methanol to each 25 μl reaction mixture. After centrifugation, 20 μl of the methanol extract was separated with a reverse-phase High Performance Liquid Chromatography (HPLC) system (Agilent) using an Inertsil ODS-3 3μ (150×4.6 mm) chromatography column from Varian. The isocratic mobile phase was the mixture of methanol and 50 mM potassium phosphate buffer, pH 6.25, with ratio of 60:40 (v/v) and the flow rate was 1 ml/min. The nornicotine peak, as determined by comparison with authentic non-labeled nornicotine, was collected and subjected to 2900 tri-carb Liquid ScintlDation Counter (LSC) (Perkin Elmer) for quantification. The activity of nicotine demethylase is calculated based on the production of ^14C labeled nornicotine over 1 hour incubation.

[2] = target: T2, nicotine demethylase activity in the transformed yeast cells; experiment: In vivo enzyme assay: feeding transformed yeast culture with 14C labeled nicotine; format: cell-based; conditions: WAT11 yeast, galactose-induced culture, 55 μM 14C nicotine, 6 hours
Procedure: Single yeast colonies were used to inoculate 30 mL SGI media (5 g/L bactocasamino acids, 6.7 g/L yeast nitrogen base without amino acids, 20 g/L glucose, 40 mg/L DL-tryptophan) and grown at 30° C. for about 24 hours. An aliquot of this culture was diluted 1:50 into 1000 mL of YPGE media (10 g/L yeast extract, 20 g/L bacto peptone, 5 g/L glucose, 30 ml/L ethanol) and grown until glucose was completely consumed as indicated by the colorimetric change of a Diastix urinalysis reagent strip (Bayer, Elkhart, Ind.). Induction of cloned P450 was initiated by adding DL-galactose to a final concentration of 2%. The cultures were grown for an additional 20 hours before used for in vivo activity assay or for microsome preparation.
WAT11 yeast cells expressing pYeDP60-CYP71D20 (a p450 catalyzing the hydroxylation of 5-epi-aristolochene and 1-deoxycapsidiol in Nicotiana tabacum) were used as control for the p450 expression and enzyme activity assays.
The nicotine demethylase activity in the transformed yeast cells were assayed by feeding of yeast culture with DL-Nicotine (Pyrrolidine-2-^14C). ^14C labeled nicotine (54 mCi/mmol) was added to 75 μl of the galactose-induced culture for a final concentration of 55 μM. […] After spinning, 20 μl of the methanol extract was separated with an rp-HPLC and the nornicotine fraction was quantitated by LSC.

Row | Molecule | effect on nicotine demethylase activity of D121-AA8 microsomes ([1]; Chlorpromazine 1 mM, incubated for 1 hour) | nornicotine produced from the demethylation of nicotine (HPLC and LSC) [1] | conversion of nicotine to nornicotine in yeast culture [2] | Demethylase activity, Microsomes + 100 μM cytochrome C ([1]; yeast microsomes with 100 μM oxidized cytochrome c, n = 3) | Demethylase activity, Microsomes + 1 mM chlorpromazine ([1]; yeast microsomes with 1 mM chlorpromazine, n = 3) | Demethylase activity, Microsomes ([1]; yeast microsomes, 6 mM NADPH, 55 μM 14C labeled nicotine, 25° C., 1 hour, n = 12)
1 | CN(C)CCCN1c2ccccc2Sc2ccc(Cl)cc21 [Chlorpromazine, reference compound] | decreased significantly | – | – | – | – | –
2 | B1 | – | did not show any nornicotine conversion formation | – | – | – | –
3 | B2 | – | did not show any nornicotine conversion formation | did not convert nicotine to nornicotine | Not Detected | Not Detected | Not Detected
